Experimental data taken from the nanobody polyreactivity screen of Harvey et al. (2022).

Assay: yeast display, Sf9 membrane polyspecificity reagent, FACS + sequencing; frameworks hold sequencing errors
How it was run: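 Polyreactivity labels are assigned by the sorting gate from which each nanobody was recovered. The gates were low and high (top ~1%), set on anti-HA fluorescence for expression and streptavidin fluorescence for reagent binding. Before sorting, galactose-induced (36–48 hours) yeast display cells were stained for 1 hour at 4 °C with 10% biotinylated, detergent-solubilized Sf9 membrane reagent.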

Sequence	polyreactivity (PSR sort gate)
QGQLVESGGGLVQAGGSLRLSCAASGFTFYKNTMGWYRQAPGKERELVAAISSSGSSTYYADSVKGRFTISRDNAKNTVYLQMISLKPEDTAVYYCAACSFAYHDDYWGQGTQVTVSS	high polyreactivity
QGQLVESGGGLVQAGGSLRLSCAASGLTFYYYARGWYRQAPGKERELVATISSRGGSTNYADSVKGRFTISRDNAKNTVYLQMNSLKPEDTAVYYCATDNSGYPRLNYWGQGTHVTVSS	high polyreactivity
QGQLVESGGGLVQAGGSLRLSCAASGRIFVPYGMGWYRQAPGKERELVAAITTGGSTNYADSVKGRFTISRDNAKNTVYLQMNSLKPEDTAVYYCAVDWYPQLIYSFNSELEYWGQGTQVTVSS	low polyreactivity
QGQLVESGGGLVQAGGSLRLSCAASGRISYYYAMGWYRQAPGKERELVAAISRRSTSTYYADSVKGRFTISRDYAKNTVYLQMNSLKPEDTAVYYCAARYIRAFSWRMDYWGQGTQVTVSS	high polyreactivity
QGQLVESGGGLVQAGGSLRLSCAASGRIVRPNAMGWYRQAPGKETEFVAAISSGGSTYYADSVKGRFTISRDNAKNSVYLQMNSLKPEDTAVYYCAADLSNRPYYRQGYDYWGQGTQVTVSS	high polyreactivity
QGQLVESGGGLVQAGGSLRLSCAASGRIVSVYAMGWYRQAPGKEREFVASISWRGGRTYYADSVKGRFTISRDNAKNTVYLQMNSLKPEDTALYYCATGYDYYVRRYYYWGQGTQVSVSS	high polyreactivity
QGQLVESGGGLVQAGGSLRLSCAASGRTFKYYAMGWYRQAPGQERELVAAISYNGGSTFYADSVKGRFTISRDNAKNTVYLQMNSLKPEDTAVYYCAAVYRYRNRRDYDYWGQGTQVTVSS	high polyreactivity
QGQLVESGGGLVQAGGSLRLSCAASGRTFTYYVMGWSRQAPGKERELVAAISWTGGSTNYADSVMGRFTISRDNAKNTVYLQMNSRKPEDTAVYYCNAGGFFGYGRPGYYWGQGTQVTVSS	low polyreactivity
QGQLVESGGGLVQAGGSLRLSCAASGRTFYLNAMGWYRQAPGKERELVAAINRGTRTYYADSVKGRFTISRDNAKNTVFLQMNSLKPDETAVYYCASVPRYYYSSSYTMDYWGQGTQVTVSS	high polyreactivity
QGQLVESGGGLVQAGGSLRLSCAASGRTLYYYAMGWYRQAPGKERELVASIDWDSGITDYADSVTGRFTISRANAKNTVYLQMNILTPEDTAVYYCAAVRVTKKYSYEYWGQGTQVTVSA	low polyreactivity
QGQLVESGGGLVQAGGSLRLSCAASGSIFLTNAMGWYRQAPGKEREFVAAIDWGGTITYYADSVKGRFTISRDNAKNTVYLQMNSLKPEDTAVYYCNRVFPPTDYEFDSWGQGTQGTVSS	low polyreactivity
QGQLVESGGGLVQAGGSLRLSCAASGSIFPGYTMGWYRQAPGKERELVAVISSDGRTHYADSVKGRFTISRDNAKNTVYLQMNSLKPEDSAVYYCAAAKRAYGYVLHAFYYWGQGTQVTVSS	high polyreactivity
QGQLVESGGGLVQAGGSLRLSCAASGSIFPRYVMGWYRQAPGKERELVAAITTSGGRTYYADSVKGRFTISRDNAKKTVYLQMNSQKPVDTAVYYCAARPWGYRYGSEYVGGDYWGQGTQVTVSS	high polyreactivity
QGQLVESGGGLVQAGGSLRLSCAASGSIFSSNAMGWYRQAPGKQRELVAAIDWDSGSTSYADSVKGRFTISRDNAKNTVYLQMISLKPEDTAVFYCAADEVLSGYYTLDYWGQGTQVTVSS	low polyreactivity
QGQLVESGGGLVQAGGSLRLSCAASGSIFSVNTMGWYRQAPGKERELVATIRTGDSTNYADSVKGRFTISRDNAKNTVYLQMNSLKPEDTAVYYCAADWSSLNFDYWGQGTQVTVSS	low polyreactivity
QGQLVESGGGLVQAGGSLRLSCAASGSIFWDNVMGWSRQAPGKERELVADIDSWDGGSTYYADSVKGRFTISRDNAKNTVYLQMHSRKPEDTAVYYCNTDVLWWRGGDDFWGQGTQVTVSS	low polyreactivity
QGQLVESGGGLVQAGGSLRLSCAASGSILLYYAMGWYRQAPGKEWELVAAITGGGGTNYADAGKGRFTISRDNAKNTVYLQMNSLIPEDTAVYYCAADPSGQFPYSYYNYDYDYWGQGTQVTVSS	low polyreactivity
QGQLVESGGGLVQAGGSLRLSCAASGSILRSYAMGWSIQAPRKVRELVATITRSAGRTYYADSVKGRFTISRDNAKNTVYLQMNSLKPEDTALYYCAACYCDTETGYREYDYWGQGTQVNVSS	low polyreactivity
QGQLVESGGGLVQAGGSLRLSCAASGSTFGYNVMGWYRQATGKERELVAAINYSGVRTYYADSVKGRFTISRDNAKNTVYLQMNSLIPEDTAVYYCNATPTRAVGPYQYNYWGQGTQVTVSS	high polyreactivity
QGQLVESGGGLVQAGGSLRLSCAASGSTFQGYAMGWYRQAPGKERELVAAISGRSGSTYYADSVKGRFTISRDNAKNTVYLQMNSLKPEDTADYYCAAGIPFRQRLRRYYYWGQGSQVTVSS	high polyreactivity
QGQLVESGGGLVQAGGSLRLSCAASGSTFTSSAMGWSRQGPGKERELVAAISRSGGRTYYADSVKGRFTISRDNAKTTVYLQMNSQKPEDTAVYYCAADRSRWGQGTQVTVSS	high polyreactivity
QGQLVESGGGLVQAGGSLRLSCAASGSTFVYYARGWYRQAPGKEREMVAAIRYSGASTYYADSVKGRFTISRDNAKNTVYLQMNSLKPEDTAVYYCAAQPTTRRVPRFSSRARHYYWGQGTQVTVSS	high polyreactivity

Sequence	polyreactivity (PSR sort gate)
QGQLVESGGGLVQAGGSLRLSCAASGSTVSYNAMGCSRPARGKERALVAAISSGGRTYYADSVKGRFTISRDNAKKTVYFQMNSLKPEDTAVYYCAVYETHWGYWYELDYWGQGTQVTVSS	high polyreactivity
QGQLVESGGGLVQAGGSLRLSCAPSGGTFEFYTMGWYRQAPGKERELVAVINASGDSTYYADSVKGRFTISRDNAKNTVYLQMNSLKPEDTAVYYCAADHRGEYDYWGQGTQVTVSS	low polyreactivity
QGQLVESGGGLVQAGGSLRLSCDASGSTFFENTMGWYRQAHGQERELVAAITSGGGRPYYADSVKGRFTISRDNAKNTVYLQLNSLKPEETAVYYCAARARYTRRGRHYDYWGQGTQVTVSS	high polyreactivity
QGQLVESGGGLVQAGGSLRLSSAASGSTHALYTMGWYRQARGKARQLVAAISKNGGRTYYADSVKGRFTISRDNAKNTVYVQMNSLKPEDTAVYYCAAASGSYRGYDYWGQGTQVTVSS	high polyreactivity
QGQLVESGGGLVQAGGSLRLTCAASGSNFVQNAMGWYRPAPGKERELVAVSNSGDSTNYADSVKGRFTISRDNAKNTVYLHMNSLKPEDNAVYYCAVDDVSYYYLRAYNYELSWYGSGLDYWGQGTQVTVSS	low polyreactivity
QGQLVESGGGLVQAGGSLRLTCAASGSTFRWNVMGWYRQAPGKERELVAAISSTGDNTYYADSVKGRFTISRDNAKNTGYLQMNSLKPEDTAVYYCAAGRGARDRARKHGYWGQGTQVTVSS	high polyreactivity
QGQLVESGGGLVQAGGSLSLSCAASGFIFSGYAMGWYRQAPGKERELVAAISTRGGRTYYADSVKGRFTISRDNAKNTVYLQMNSLKPEDTAVYYCAADSLYPELDYWGQGTQVTVSS	high polyreactivity
QGQLVESGGGLVQAGVSLRLSCAASGSTFRDYAMGWYRQAPGKERELVASITSGGSTNYADSVKGRFTISRDNAKNTVYLQMNSLKPEDTAVYYCGAESMPRWFVRYDYWGQGTQVTVSS	low polyreactivity
QGQLVESGGGLVQAVGSLRLSCAASGITLRIYAMGWYRQAPGKEREMVAGITSGGSTNYADSVKGRFTLSRDNAKNTVYLQMNSLKPEDTAVYYCAARQVRTSKLHMGYWGQGTQVTVSS	low polyreactivity
QGQLVESGGRLVQAGGSLRLSCAASGRIFGWYDMGWYREEPGKERELVAAINWSGGSTYYADSVKGRFTISRDNEKNTFYLQMNCLKPEDTAVYYCAADVAQVGYQVGVSEIYPGYEYWGQGTQVNVSS	low polyreactivity
QGQLVESWGGLVQAGGSLRLSCAASGRIFYGYVMGWYREAPGKERELVAAINHSGTSTYYADSVKGRFTISRDIAKNTVYLQMNIMKPEDTAVYYCAADQVGWTYDYWGQGTQVTVSS	low polyreactivity
QGQLVESWGGLVQAGGSLRLSCAASGSTFVFNAMGWYRQAPGKERELVAAISIDGSTNYADSVKGRFTISRDNAKNTVYLQMNSLEPEDTAVYYCNAKRYGFFYWQGDYWGQGTQVTVSS	low polyreactivity
QGQLVETGGGLVQAGGSLRLSCGASGSTFLWNTIGWYRQGPRKERELVAEIRTSGGGTYYADSVKGRFTISRDNAKNTVYLQMNSLKPEDTEVYYCYADPKWEMGSWGQGTQVTVSS	low polyreactivity
QGQRVESGGGLVQAGGSLRLSCAASGFIFAHNAMGWYRPAPGTETEFVAAISANTGNTYYADSVKGRFTISRDNAKNTVYLQMNSLKPEDTAVYYCRSFYYWGQGTQVTVSS	high polyreactivity
QGQRVESGGGLVQAGGSLRLSCAASGSTFEDNAMGWSRPAPGKERELVAAITTGGGSTYYADSVKGRFTISRDNAKNTVYLQMNSLKPEDTAVYYCAADWSYYYSRNYESDYWGQGTQVTVSS	low polyreactivity
QHQLGESGGGLVQAGGRLRLSCAASGRIFHVSAMGWYREAPGKERELVAAISSGDRTYYADSGKGRFIISRDNAKNSVYLQLNSLKPEDTAVYYCWRYPAAESNYWGQGTQVTVSS	low polyreactivity
QHQLVESGGGLVQAGGSLRLSCAASGSIFWRYVMGWYRPAPGKERELVAAISSGGGITYYADSVTGRFTISRDTAKNTLYLQMNSLKPEDTAVYYCAAYGSLSPKYGYWGQGTQVNVSS	high polyreactivity
QLHLVESGGGLVQAGGSLRLSCAASGYIFNYNAMGWSRQAPGTQREFVAAISQGGGSTYYADSVKGRFTISRDNSKYTVYLQMNRLKPEDTAVYYCAADYRSGYREMDYWGQGTQVTVSS	low polyreactivity
QLHLVESGGGLVQAGGSLRLSCAGSGFTFGHSAMGWYRQAPGNDRELVASITWSGGSTYYADSVKGRFTISRDNAKNTVYLQMNSRKPEDTAVYYCNAQERRVRDYDYWGQGTQVTVSS	low polyreactivity
QLQHVESGGGLVQAGGSLRLSCAASGRTFWYYAMGWYRQAPGTESELVAAISRGGGSTYYADSVKGSFTISRDTAKNTVYLQMNILKPEDTAVYYCAVASDYRGYYYWGQGTQVTVSS	high polyreactivity
QLQHVESRRGLVQAGGSLRLSCAASGLTFVGYAMGWYRQAPGKERELGAAISGVGTTNYADSVKGRFTISRDNAKNTVYFQMNSLKPEDSAVYYCAKAPYPVPYGLYDYWGQGTQVTVSS	low polyreactivity
